This is an account of results in patent publication US20220289837A1 (VIB VZW, published 2022).

Data set [1] deals with T1, Purified human wt-CFTR (His10-SUMO*-CFTRFLAG-EGFP), PKA phosphorylated (human, UniProt P13569 1-1480, PKA phosphorylated (sites not given)). Briefly: cell-based or functional assay.
Data set [2] addresses 2PT-NBD1 (human CFTR nucleotide-binding domain 1, residues 387-646, with S492P, A534P, I539T) (human, UniProt P13569 388-646, biotinylated for the ELISA (sites not given)). Briefly: cell-based or functional assay.
In data set [3] the target is T1, Purified human wt-CFTR …. Description: ELISA, purified wt-CFTR immobilised on nickel-coated plate, nanobody titrated. The text has this:
Quantification of at least 3 independent experiments (±SEM). (g) Immunoblot of CFTR from solubilized BHK-21 cells pulled-down with His-tagged nanobodies, including a non-CFTR nanobody as a control. Eluted nanobodies-CFTR complexes were separated by SDS-PAGE and presence of CFTR was detected with mAb 596 antibody after immunoblotting. Arrows indicate the mature (band C) and immature (band B) forms of CFTR. Representative of at least 3 independent experiments. (FIG. 4H) Flow cytometry analysis of nanobodies T2a, T8 and G3a on BHK-21 cells expressing 2PT-F508del showing increased labelling for T2a and G3a, but not T8. (FIG. 4I) Quantification of data illustrated in […]. Average of 3 independent experiments (±SEM).
Strep-Tactin XT coated microplate (iba Life Science) was coated overnight at 4° C. with Twin-Strep-tagged nanobodies (5 μg/ml). […] CFTR binding was detected with monoclonal antibodies L12B4, MM13, 154, 660, 570, 596 specific to CFTR obtained from the CFTR Antibody Distribution Program (http://cftrantibodies.web.unc.edu/available-antibodies)46 and then anti-mouse-HRP antibody (Millipore, catalogue number: AP308P, 0.5 μg/ml) for 1 h 30 min at 4° C. […] Nanobody binding was detected with Myc-tag specific antibody (Sigma, catalogue number: C3956, 0.5 μg/ml) and then anti-rabbit-HRP antibody (Cell Signaling, catalogue number: 7074S, 1:1000 dilution) for 1 h 30 min at 4° C. […]
(In general: An ELISA detects its analyte on a solid surface through an enzyme-linked reagent.)

Data set [4] concerns the target T2, 2PT-F508del-CFTR expressed in BHK-21 cells (human, UniProt P13569 1-1480, I539T; S492P; A534P; F508del).
T2 construct: Full-length F508del CFTR stabilized by the three point mutations; permeabilized cells in flow cytometry
Description: flow cytometry on permeabilised BHK-21 cells expressing 2PT-F508del-CFTR, anti-tag antibody and Alexa Fluor 488 secondary. The text has this:
Graph depicts one representative of at least three independent experiments. (FIG. 4F) Average median fluorescence (fold over negative control) for each of the three representative nanobodies as illustrated in (FIG. 4D) and (FIG. 4E). Quantification of at least 3 independent experiments (±SEM). (g) Immunoblot of CFTR from solubilized BHK-21 cells pulled-down with His-tagged nanobodies, including a non-CFTR nanobody as a control. Eluted nanobodies-CFTR complexes were separated by SDS-PAGE and presence of CFTR was detected with mAb 596 antibody after immunoblotting. Arrows indicate the mature (band C) and immature (band B) forms of CFTR. Representative of at least 3 independent experiments. (FIG. 4H) Flow cytometry analysis of nanobodies T2a, T8 and G3a on BHK-21 cells expressing 2PT-F508del showing increased labelling for T2a and G3a, but not T8. (FIG. 4I) Quantification of data illustrated in […]. Average of 3 independent experiments (±SEM).
Parental BHK-21 cells (ATCC; CCL-10) and cells stably overexpressing human wt-CFTR^{[43,44,47]} or 2PT-F508del-CFTR, as described above, were permeabilized with 0.01% n-Dodecyl-β-D-Maltopyranoside β-DDM—Inalco) at least for 2 h on ice. In the meantime, cells were incubated with 50 μg/ml nanobodies and DRAQ7 (0.3 μM—Biostatus) to monitor the permeabilization state. Nanobody binding was detected by using His-tag specific antibody (Invitrogen, catalogue number MA1-135, 1 μg/ml) or Myc-tag specific antibody (Invitrogen, catalogue number 13-2500, 2 μg/ml) and then anti-mouse-Alexa Fluor 488 (Invitrogen, catalogue number A11001, 1.3 μg/ml) at least for 30 min on ice. Cells were washed one time between each step by centrifugation (200×g for 5 min at 4° C.). All incubations (100 μl) and washes (1.5 ml) were performed in PBS with 6% fetal bovine serum (FBS) and 0.01%13-DDM on ice. Cells fluorescence was measured with Gallios Flow Cytometer (Beckman Coulter). Data were analyzed with Kaluza software.

T1 sequence (P13569 whole entry, the tested form may be a part): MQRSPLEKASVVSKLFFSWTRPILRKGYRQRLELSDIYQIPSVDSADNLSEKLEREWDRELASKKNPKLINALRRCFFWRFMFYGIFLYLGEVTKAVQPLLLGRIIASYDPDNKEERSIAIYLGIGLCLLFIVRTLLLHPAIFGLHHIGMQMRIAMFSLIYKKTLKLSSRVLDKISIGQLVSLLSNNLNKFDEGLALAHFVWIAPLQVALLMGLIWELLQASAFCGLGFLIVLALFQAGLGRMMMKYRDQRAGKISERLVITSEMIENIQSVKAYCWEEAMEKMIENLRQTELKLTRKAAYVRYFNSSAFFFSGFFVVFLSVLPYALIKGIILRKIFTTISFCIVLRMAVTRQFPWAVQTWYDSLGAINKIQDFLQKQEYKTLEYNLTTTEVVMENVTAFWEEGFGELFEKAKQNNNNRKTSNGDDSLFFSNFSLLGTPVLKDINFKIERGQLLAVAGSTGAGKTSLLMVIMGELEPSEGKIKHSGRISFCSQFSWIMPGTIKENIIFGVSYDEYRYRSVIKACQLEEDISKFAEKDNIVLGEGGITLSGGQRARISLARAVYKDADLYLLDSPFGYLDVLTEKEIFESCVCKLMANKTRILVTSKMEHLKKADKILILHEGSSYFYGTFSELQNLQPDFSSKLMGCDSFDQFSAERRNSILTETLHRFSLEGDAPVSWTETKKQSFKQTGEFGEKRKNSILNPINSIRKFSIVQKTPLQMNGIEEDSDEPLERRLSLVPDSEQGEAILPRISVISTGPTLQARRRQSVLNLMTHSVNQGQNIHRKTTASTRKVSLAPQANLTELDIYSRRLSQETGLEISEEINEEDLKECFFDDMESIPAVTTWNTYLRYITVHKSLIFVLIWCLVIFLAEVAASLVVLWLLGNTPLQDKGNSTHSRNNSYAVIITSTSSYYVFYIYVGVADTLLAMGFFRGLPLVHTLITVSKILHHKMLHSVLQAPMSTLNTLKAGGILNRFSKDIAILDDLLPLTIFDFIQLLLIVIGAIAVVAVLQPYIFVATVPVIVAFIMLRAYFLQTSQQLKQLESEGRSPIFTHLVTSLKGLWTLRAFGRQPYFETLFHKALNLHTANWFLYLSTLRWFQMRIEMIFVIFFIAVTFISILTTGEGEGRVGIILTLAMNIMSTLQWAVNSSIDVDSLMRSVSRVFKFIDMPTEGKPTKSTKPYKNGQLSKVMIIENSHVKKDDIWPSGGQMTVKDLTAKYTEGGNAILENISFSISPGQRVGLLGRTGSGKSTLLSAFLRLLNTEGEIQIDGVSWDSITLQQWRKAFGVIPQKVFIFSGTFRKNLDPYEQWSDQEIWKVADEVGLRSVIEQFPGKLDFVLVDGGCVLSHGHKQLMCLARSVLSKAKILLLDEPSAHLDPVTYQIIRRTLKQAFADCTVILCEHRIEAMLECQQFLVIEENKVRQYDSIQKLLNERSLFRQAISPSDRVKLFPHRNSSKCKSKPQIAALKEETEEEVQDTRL
T2 sequence (P13569 other isoform, or with tags, fused parts or gaps I539T/S492P/A534P/F508del): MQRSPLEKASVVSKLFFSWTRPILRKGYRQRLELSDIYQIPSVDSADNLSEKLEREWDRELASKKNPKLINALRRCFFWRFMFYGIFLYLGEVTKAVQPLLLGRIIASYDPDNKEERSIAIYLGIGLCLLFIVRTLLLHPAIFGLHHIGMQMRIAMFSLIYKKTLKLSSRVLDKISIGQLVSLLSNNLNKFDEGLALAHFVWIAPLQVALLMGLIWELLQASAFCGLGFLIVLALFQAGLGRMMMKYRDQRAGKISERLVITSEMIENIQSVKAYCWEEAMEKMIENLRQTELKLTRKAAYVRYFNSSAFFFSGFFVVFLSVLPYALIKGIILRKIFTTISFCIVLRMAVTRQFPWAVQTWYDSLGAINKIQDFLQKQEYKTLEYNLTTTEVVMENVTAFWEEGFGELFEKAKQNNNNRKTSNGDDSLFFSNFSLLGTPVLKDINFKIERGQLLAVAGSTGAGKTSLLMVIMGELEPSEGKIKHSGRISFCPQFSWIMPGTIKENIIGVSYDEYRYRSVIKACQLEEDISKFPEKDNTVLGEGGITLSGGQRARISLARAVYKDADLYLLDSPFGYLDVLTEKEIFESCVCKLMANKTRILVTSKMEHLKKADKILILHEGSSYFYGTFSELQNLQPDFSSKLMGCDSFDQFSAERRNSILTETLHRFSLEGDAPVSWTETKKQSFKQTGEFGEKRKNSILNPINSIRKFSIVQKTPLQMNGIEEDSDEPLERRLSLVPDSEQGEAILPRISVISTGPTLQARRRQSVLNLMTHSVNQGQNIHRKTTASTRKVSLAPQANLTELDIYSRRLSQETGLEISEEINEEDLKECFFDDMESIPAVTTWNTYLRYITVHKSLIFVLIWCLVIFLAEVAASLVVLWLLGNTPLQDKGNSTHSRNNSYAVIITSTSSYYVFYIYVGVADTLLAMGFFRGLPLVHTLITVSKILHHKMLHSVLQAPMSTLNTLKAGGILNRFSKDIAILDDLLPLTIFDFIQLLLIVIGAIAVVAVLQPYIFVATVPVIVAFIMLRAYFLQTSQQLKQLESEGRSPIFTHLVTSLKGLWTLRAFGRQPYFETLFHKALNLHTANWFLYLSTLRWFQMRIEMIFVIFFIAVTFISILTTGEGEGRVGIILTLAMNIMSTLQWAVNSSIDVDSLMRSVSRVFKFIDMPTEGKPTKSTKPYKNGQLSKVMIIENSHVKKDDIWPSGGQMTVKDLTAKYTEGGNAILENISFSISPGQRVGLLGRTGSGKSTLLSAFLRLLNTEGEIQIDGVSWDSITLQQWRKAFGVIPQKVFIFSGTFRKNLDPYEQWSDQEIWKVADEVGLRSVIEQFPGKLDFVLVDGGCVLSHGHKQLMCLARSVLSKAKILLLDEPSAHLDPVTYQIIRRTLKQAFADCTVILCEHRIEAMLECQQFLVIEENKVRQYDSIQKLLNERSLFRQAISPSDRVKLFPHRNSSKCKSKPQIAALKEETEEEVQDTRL
2PT-NBD1 (human CFTR nucleotide-binding domain 1, residues 387-646, with S492P, A534P, I539T), sequence (P13569 388-646 V470M/S492P/A534P/I539T limits assumed): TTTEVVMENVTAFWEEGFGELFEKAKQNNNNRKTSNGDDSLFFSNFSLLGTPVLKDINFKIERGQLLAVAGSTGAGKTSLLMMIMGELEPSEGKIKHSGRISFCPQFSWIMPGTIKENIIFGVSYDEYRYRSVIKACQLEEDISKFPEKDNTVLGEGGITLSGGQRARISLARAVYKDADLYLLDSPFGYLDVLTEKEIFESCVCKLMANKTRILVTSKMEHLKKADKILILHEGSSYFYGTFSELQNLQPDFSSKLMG

B1: Nanobody T8 (VHH, not shown: small tags and cut ends)
VHH: QVQLQESGGGLVQPGGSLRLSCAASGSTSSINAMGWYRQAPGKQREPVAISSSGGDTRYAEPVKGRFTISRDNAQNKVYLQMNSLKPEDTAVYYCWLNWGRTSVNSWGQGTQVTVSS
notes: Llama nanobody; also called Nb T8; T8 Nb
For orientation: EC50 (read off the curve) means the concentration giving half of the maximal effect. Regarding B1, the “ATPase activity (% of PKA-phosphorylated CFTR)” value in data set [1] was found to be 60%. The “increase of Tm (thermal shift assay, DSF)” value in data set [2] stood at 9.3 °C. The “EC50 (read off the curve)” value in data set [3] is about 300 nM. Also, in data set [4], the binding result is “no binding”.

B2: Nanobody T2a (VHH, not shown: small tags and cut ends)
VHH: QVQLQESGGGLVQAGGSLRLSCAASGSIFRIDAMGWYRQAPGKQRELVAHSTSGGSTDYADSVKGRFTISRDNAKNTVYLQMNSLKPEDTAVYYCNADVRTRWYASNNYWGQGTQVTVSS
notes: Llama nanobody; also called Nb T2a; T2a Nb
Turning to B2, in data set [1], the “ATPase activity (% of PKA-phosphorylated CFTR)” value worked out at 50%. Also, in data set [2], the “increase of Tm (thermal shift assay, DSF)” value was 11.2 °C. Moreover, in data set [3], the “EC50 (read off the curve)” value is about 200 nM. Moreover, the binding result in data set [4] is “binds”.
